Molecular target: CCR5 on ThP1 human monocytes (human) (UniProt P51681)
Sequence (P51681 whole entry): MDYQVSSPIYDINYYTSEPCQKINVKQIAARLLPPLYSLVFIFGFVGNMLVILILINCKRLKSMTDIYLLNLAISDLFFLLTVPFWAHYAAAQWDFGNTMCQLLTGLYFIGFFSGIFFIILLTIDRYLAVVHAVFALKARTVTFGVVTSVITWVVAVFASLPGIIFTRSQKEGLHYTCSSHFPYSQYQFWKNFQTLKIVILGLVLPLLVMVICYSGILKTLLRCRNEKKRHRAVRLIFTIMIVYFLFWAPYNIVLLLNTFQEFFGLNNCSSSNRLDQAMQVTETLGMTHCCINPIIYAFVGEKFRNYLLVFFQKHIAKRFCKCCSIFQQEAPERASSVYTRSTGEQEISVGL

## native form murine CCL4 (from UniProt P14097 24-92) (ligand)
  EC50, calcium flux (RFU) in ThP1 monocytes [panel D]: 6.3 nM
